# From IntAct's records for PubMed 20974926
# B1: Peptide chain release factor subunit 1 (Aeropyrum pernix (strain ATCC 700893 / DSM 11879 / JCM 9820 / NBRC 100138 / K1)), Q9YAF1 (parent)
# chain: MSQGRLEERLTISKRELARLLKELKKWSAPATVLLSLYIPPGRPLSDVMTLLRQEYSITDNIKLKRTRQAVKRALSAAMDRLQMLTSTPPNGLVLFCGEDMSTGKFECFMFSPPEPIRVFYYRTDKRFITDFLEDMVEDNNAIGIIIVERDQATIGLLKGARLEVLKELEGFVPGKHKMGGQSQRRYERIIEQMVDEFFKKVGEEASNLLVPLAEKGVLKGVIVAGPGLAKQEFVEGNYLDYRLKKILAPELVDVAYQGLQGLKEAVMKAEKVVEAQMYRDAVNAMEEFKLHLAKGTGMIVYGEKDVEAALEMGAVKTLLIHESREDLEEWVEKAKSSGAQVIVVPESLAEAEWFLKTFGGLAGILRFRISTV
# partner: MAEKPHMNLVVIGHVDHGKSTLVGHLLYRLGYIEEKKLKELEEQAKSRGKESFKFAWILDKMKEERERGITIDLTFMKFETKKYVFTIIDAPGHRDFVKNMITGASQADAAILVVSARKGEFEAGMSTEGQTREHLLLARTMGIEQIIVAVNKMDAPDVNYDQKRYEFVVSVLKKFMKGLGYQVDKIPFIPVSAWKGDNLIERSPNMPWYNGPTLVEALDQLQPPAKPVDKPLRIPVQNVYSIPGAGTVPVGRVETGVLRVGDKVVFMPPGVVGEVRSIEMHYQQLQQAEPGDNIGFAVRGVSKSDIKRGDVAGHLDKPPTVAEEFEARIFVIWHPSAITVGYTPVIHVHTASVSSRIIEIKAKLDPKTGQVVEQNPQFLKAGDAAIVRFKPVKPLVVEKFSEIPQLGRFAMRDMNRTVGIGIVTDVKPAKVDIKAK
# B2: Eukaryotic peptide chain release factor subunit 1 (Schizosaccharomyces pombe (strain ATCC 38366 / 972)), P79063 (parent)
# chain: MSETAEKAIEIWKIRRLVKQLINCHGNGTSMITLIIPPGEQISRYSNMLAEEYGTASNIKSRVNRLSVLSAITSTRERLKLYNKVPDNGLVIYCGEVIMEGNKTRKLNIDFEPFKPINTSQYLCDNKFHTEALAELLESDQRFGFIVMDGHQTLYGVVSGSAREVLQRFTVDLPKKHGRGGQSALRFARLRDEKRHNYVRKVAEGAVQHFITDDKPNVAGIVLAGSADFKTELGQSDLFDQRLQSRIIKTVDVSYGGDAGFNQAIELAADTLSNVKYVQEKKLIQRFFDEISLDSGKYCFGVVDTMNALQEGAVETLLCFADLDMIRYEFKNSEGNPVITYMTKEQEEKDSTNSFLLDKDTGAEMELVSSMLLSEWLAEHYKDYGANLEFVSDRSQEGMQFVKGFGGIGAVMRYQLDLSMLDPESDEFYSDSD
# partner: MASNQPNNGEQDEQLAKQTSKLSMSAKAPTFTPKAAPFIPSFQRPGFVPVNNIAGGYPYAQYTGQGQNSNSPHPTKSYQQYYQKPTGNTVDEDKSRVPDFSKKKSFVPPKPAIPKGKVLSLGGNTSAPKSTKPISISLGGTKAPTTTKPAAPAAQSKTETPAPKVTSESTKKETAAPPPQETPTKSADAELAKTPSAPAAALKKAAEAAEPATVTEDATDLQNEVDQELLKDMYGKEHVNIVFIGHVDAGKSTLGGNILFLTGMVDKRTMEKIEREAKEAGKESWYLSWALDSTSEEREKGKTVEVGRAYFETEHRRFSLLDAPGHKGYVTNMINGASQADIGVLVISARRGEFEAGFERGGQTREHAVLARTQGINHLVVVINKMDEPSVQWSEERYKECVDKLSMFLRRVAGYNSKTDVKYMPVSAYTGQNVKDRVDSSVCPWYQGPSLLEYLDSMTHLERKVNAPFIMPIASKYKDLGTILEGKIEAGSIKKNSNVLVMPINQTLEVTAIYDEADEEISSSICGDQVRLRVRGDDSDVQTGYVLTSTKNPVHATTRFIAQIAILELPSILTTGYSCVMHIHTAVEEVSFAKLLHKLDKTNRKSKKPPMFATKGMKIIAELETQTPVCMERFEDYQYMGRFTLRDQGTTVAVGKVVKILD
# B3: Elongation factor 1-alpha (Aeropyrum pernix (strain ATCC 700893 / DSM 11879 / JCM 9820 / NBRC 100138 / K1)), Q9YAV0 (parent)
# chain: B1 partner
# partner: B1 chain
# Variants of: B1
# Conditions: with ef1a_aerpe tuf
row,effect of a mutation on the interaction,Variant
1,decreasing interaction,MSQGRLEERLTISKRELARLLKELKKWSAPATVLLSLYIPPGRPLSDVMTLLRQEYSITDNIKLKRTRQAVKRALSAAMDRLQMLTSTPPNGLVLFCGEDMSTGKFECFMFSPPEPIRVFYYRTDKRFITDFLEDMVEDNNAIGIIIVERDQATIGLLKGARLEVLKALEGFVPGKHKMGGQSQRRYERIIEQMVDEFFKKVGEEASNLLVPLAEKGVLKGVIVAGPGLAKQEFVEGNYLDYRLKKILAPELVDVAYQGLQGLKEAVMKAEKVVEAQMYRDAVNAMEEFKLHLAKGTGMIVYGEKDVEAALEMGAVKTLLIHESREDLEEWVEKAKSSGAQVIVVPESLAEAEWFLKTFGGLAGILRFRISTV [E168A]
2,disrupting interaction,MSQGRLEERLTISKRELARLLKELKKWSAPATVLLSLYIPPGRPLSDVMTLLRQEYSITDNIKLKRTRQAVKRALSAAMDRLQMLTSTPPNGLVLFCGEDMSTGKFECFMFSPPEPIRVFYYRTDKRFITDFLEDMVEDNNAIGIIIVERDQATIGLLKGARLEVLKELEGFVPGKHKMGGQSQRRYERIIEQMVDEFFKKVGEEASNLLVPLAEKGVLKGVIVAGPGLAKQEFVEGNYLDYRLKKILAPELVDVAYQGLQGLKEAVMKAEKVVEAQMYRDAVNAMEEFKLHLAKGTGMIVYGEKDVEAALEMGAVKTLLIHESREDLEEWVEKAKSSGAQVIVVPESLAEAEWFLKTAGGLAGILRFRISTV [F359A]

# Variants of: B2
# Conditions: with erf3_schpo sup35, O74718
row,effect of a mutation on the interaction,Variant
1,decreasing interaction,MSETAEKAIEIWKIRRLVKQLINCHGNGTSMITLIIPPGEQISRYSNMLAEEYGTASNIKSRVNRLSVLSAITSTRERLKLYNKVPDNGLVIYCGEVIMEGNKTRKLNIDFEPFKPINTSQYLCDNKFHTEALAELLESDQRFGFIVMDGHQTLYGVVSGSAREVLQRFTVDAPKKHGRGGQSALRFARLRDEKRHNYVRKVAEGAVQHFITDDKPNVAGIVLAGSADFKTELGQSDLFDQRLQSRIIKTVDVSYGGDAGFNQAIELAADTLSNVKYVQEKKLIQRFFDEISLDSGKYCFGVVDTMNALQEGAVETLLCFADLDMIRYEFKNSEGNPVITYMTKEQEEKDSTNSFLLDKDTGAEMELVSSMLLSEWLAEHYKDYGANLEFVSDRSQEGMQFVKGFGGIGAVMRYQLDLSMLDPESDEFYSDSD [L173A]
2,decreasing interaction,MSETAEKAIEIWKIRRLVKQLINCHGNGTSMITLIIPPGEQISRYSNMLAEEYGTASNIKSRVNRLSVLSAITSTRERLKLYNKVPDNGLVIYCGEVIMEGNKTRKLNIDFEPFKPINTSQYLCDNKFHTEALAELLESDQRFGFIVMDGHQTLYGVVSGSAREVLQRFTVDLPKAHGRGGQSALRFARLRDEKRHNYVRKVAEGAVQHFITDDKPNVAGIVLAGSADFKTELGQSDLFDQRLQSRIIKTVDVSYGGDAGFNQAIELAADTLSNVKYVQEKKLIQRFFDEISLDSGKYCFGVVDTMNALQEGAVETLLCFADLDMIRYEFKNSEGNPVITYMTKEQEEKDSTNSFLLDKDTGAEMELVSSMLLSEWLAEHYKDYGANLEFVSDRSQEGMQFVKGFGGIGAVMRYQLDLSMLDPESDEFYSDSD [K176A]

# Variants of: B3
# Conditions: with rf1_aerpe prf1, Q9YAF1
row,Variant,effect of a mutation on the interaction
1,MAEKPHMNLVVIGHVDHGKSTLVGHLLYRLGYIEEKKLKELEEQAKSRGKESFKFAWILDKMKEARERGITIDLTFMKFETKKYVFTIIDAPGHRDFVKNMITGASQADAAILVVSARKGEFEAGMSTEGQTREHLLLARTMGIEQIIVAVNKMDAPDVNYDQKRYEFVVSVLKKFMKGLGYQVDKIPFIPVSAWKGDNLIERSPNMPWYNGPTLVEALDQLQPPAKPVDKPLRIPVQNVYSIPGAGTVPVGRVETGVLRVGDKVVFMPPGVVGEVRSIEMHYQQLQQAEPGDNIGFAVRGVSKSDIKRGDVAGHLDKPPTVAEEFEARIFVIWHPSAITVGYTPVIHVHTASVSSRIIEIKAKLDPKTGQVVEQNPQFLKAGDAAIVRFKPVKPLVVEKFSEIPQLGRFAMRDMNRTVGIGIVTDVKPAKVDIKAK [E65A],decreasing interaction
2,MAEKPHMNLVVIGHVDHGKSTLVGHLLYRLGYIEEKKLKELEEQAKSRGKESFKFAWILDKMKAERERGITIDLTFMKFETKKYVFTIIDAPGHRDFVKNMITGASQADAAILVVSARKGEFEAGMSTEGQTREHLLLARTMGIEQIIVAVNKMDAPDVNYDQKRYEFVVSVLKKFMKGLGYQVDKIPFIPVSAWKGDNLIERSPNMPWYNGPTLVEALDQLQPPAKPVDKPLRIPVQNVYSIPGAGTVPVGRVETGVLRVGDKVVFMPPGVVGEVRSIEMHYQQLQQAEPGDNIGFAVRGVSKSDIKRGDVAGHLDKPPTVAEEFEARIFVIWHPSAITVGYTPVIHVHTASVSSRIIEIKAKLDPKTGQVVEQNPQFLKAGDAAIVRFKPVKPLVVEKFSEIPQLGRFAMRDMNRTVGIGIVTDVKPAKVDIKAK [E64A],disrupting interaction
3,MAEKPHMNLVVIGHVDHGKSTLVGHLLYRLGYIEEKKLKELEEQAKSRGKESFKFAWILDKMKEERERGITIDLTFMKFETKKYVFTIIDAPGHRDFVKNMITGASQADAAILVVSARKGEFEAGMSTEGQTREHLLLARTMGIEQIIVAVNKMDAPDVNYDQKRYEFVVSVLKKFMKGLGYQVDKIPFIPVSAWKGDNLIERSPNMPWYNGPTLVEALDQLQPPAKPVDKPLRIPVQNVYSIPGAGTVPVGRVETGVLRVGDKVVFMPPGVVGEVRSIEMHYQQLQQAEPGDNIGFAVRGVSKSDIKRGDVAGHLDKPPTVAEEFEARIFVIWHPSSITVGYTPVIHVHTASVSSRIIEIKAKLDPKTGQVVEQNPQFLKAGDAAIVRFKPVKPLVVEKFSEIPQLGRFAMRDMNRTVGIGIVTDVKPAKVDIKAK [A338S],disrupting interaction

# Results, then the variant that gave them:
row,effect of a mutation on the interaction,Variant
1,disrupting interaction,MAEKPHMNLVVIGHVDHGKSTLVGHLLYRLGYIEEKKLKELEEQAKSRGKESFKFAWILDKMKEERERGITIDLTFMKFETKKYVFTIIDAPGHRDFVKNMITGASQADAAILVVSARKGEFEAGMSTEGQTREHLLLARTMGIEQIIVAVNKMDAPDVNYDQKRYEFVVSVLKKFMKGLGYQVDKIPFIPVSAWKGDNLIERSPNMPWYNGPTLVEALDQLQPPAKPVDKPLRIPVQNVYSIPGAGTVPVGRVETGVLRVGDKVVFMPPGVVGEVRSIEMHYQQLQQAEPGDNIGFAVRGVSKSDIKRGDVAGHLDKPPTVAEEFEARIFVIWHPAAITVGYTPVIHVHTASVSSRIIEIKAKLDPKTGQVVEQNPQFLKAGDAAIVRFKPVKPLVVEKFSEIPQLGRFAMRDMNRTVGIGIVTDVKPAKVDIKAK [S337A]
2,decreasing interaction,MAEKPHMNLVVIGHVDHGKSTLVGHLLYRLGYIEEKKLKELEEQAKSRGKESFKFAWILDKMKEERERGITIALTFMKFETKKYVFTIIDAPGHRDFVKNMITGASQADAAILVVSARKGEFEAGMSTEGQTREHLLLARTMGIEQIIVAVNKMDAPDVNYDQKRYEFVVSVLKKFMKGLGYQVDKIPFIPVSAWKGDNLIERSPNMPWYNGPTLVEALDQLQPPAKPVDKPLRIPVQNVYSIPGAGTVPVGRVETGVLRVGDKVVFMPPGVVGEVRSIEMHYQQLQQAEPGDNIGFAVRGVSKSDIKRGDVAGHLDKPPTVAEEFEARIFVIWHPSAITVGYTPVIHVHTASVSSRIIEIKAKLDPKTGQVVEQNPQFLKAGDAAIVRFKPVKPLVVEKFSEIPQLGRFAMRDMNRTVGIGIVTDVKPAKVDIKAK [D73A]
3,disrupting interaction,MAEKPHMNLVVIGHVDHGKSTLVGHLLYRLGYIEEKKLKELEEQAKSRGKESFKFAWILDKMKEERERGITIDLTFMKFETKKYVFTIIDAPGHRDFVKNMITGASQADAAILVVSARKGEFEAGMSTEGQTREHLLLARTMGIEQIIVAVNKMDAPDVNYDQKRYEFVVSVLKKFMKGLGYQVDKIPFIPVSAWKGDNLIERSPNMPWYNGPTLVEALDQLQPPAKPVDKPLRIPVQNVYSIPGAGTVPVGRVETGVLRVGDKVVFMPPGVVGEVRSIEMHYQQLQQAEPGDNIGFAVRGVSKSDIKRGDVAGHLDKPPTVAEEFEARIFVIWHPSAITVGYTPVIHVHTASVSSRIIEIKAKLDPKTGQVVEQNPQALKAGDAAIVRFKPVKPLVVEKFSEIPQLGRFAMRDMNRTVGIGIVTDVKPAKVDIKAK [F379A]
